{
  "source": "patent US20240252614A1",
  "about": "(Pfizer, published 2024)",
  "binders": {"B1": {"name": "PIV1-8 mAb (antibody, V domains shown)", "VH": "QVQLVQSGAEVKKPGSSVKVSCEASGGTFSNYVISWVRQAPGQGLEWMGGIIPVFATAKYAQKFQGRVTIIADQSTNTAYLELSSLRSDDTAVYFCASVDSGGTWWDAFAIWGQGTMVTVSS", "VL": "QAVVTQPRSVSGSPGQAVTISCTGTSSDVGGYNYVSWYQHHPGKAPKLIIYDVTKRPSGVPDRFSGSKSGNTASLTISGLQTEYEADYYCCSYAGSYTLVFGGGTKLTVLG", "notes": "human IgG1; also called hPIV1-8 mAb; hPIV1-8"}, "B2": {"name": "hMPV-2 mAb (antibody, V domains shown)", "VH": "QVQLQQSGAEVKKPGASVKVSCKASGYTFTSYGISWVRQAPGQGLEWMGWISGYNGNTNYAQTFQGTFTMTTDTSTSTAYMELRRLRSGDTAVYYCARDRYYASGSYNGMDVWGQGTTVTVSS", "VL": "QSALTQPPSASGAPGQRVTVSCSGSSSNVGSSSVYWYQQLPGTAPKLLIYRNNQRPSGVPDRFSGSKSGTSASLAISGLRSEDEADYYCAAWDDSLSGWVFGGGTKLTVLG", "notes": "human IgG1"}},
  "key": {"[1]": {"molecular_target": "T1, PIV1043 (PIV1)", "T1 construct": "Q92A, G134A", "experiment": "BLI, 53C stress", "method": "(§1) All measurements were conducted at 30° C. temperature in 96-well black plates (Corning, Corning, NY) with a final volume of 240 μL per well at a constant agitation rate of 1000 RPM.\n(§2) Conformation integrity of PIV1 F protein mutants were evaluated by a thermal stress experiment. Crude cell culture supernatants were normalized based on the results of the titer quantitation and then incubated for 1 hour at room temperature and two higher temperatures. For the initial testing of PIV1 mutants, the two temperatures were 50° C. and 53° C. […] Anti-Human IgG Fc Capture (AHC) biosensors were first equilibrated in PB for before being dipped into more PB to establish the initial baseline. […] The mAb-bound biosensors were then dipped into the thermal stresses cell culture supernatants for 5 minutes."}, "[2]": {"molecular_target": "T2, PIV1045 (PIV1)", "T2 construct": "Q92L, G134A", "experiment": "BLI, 53C stress", "method": "as §1, §2"}, "[3]": {"molecular_target": "T3, PIV1046 (PIV1)", "T3 construct": "A466V, S473V", "experiment": "BLI, 53C stress", "method": "as §1, §2"}, "[4]": {"molecular_target": "T4, PIV1044 (PIV1)", "T4 construct": "Q92L", "experiment": "BLI, 53C stress", "method": "as §1, §2"}, "[5]": {"molecular_target": "T5, PIV1042 (PIV1)", "T5 construct": "Q92A", "experiment": "BLI, 53C stress", "method": "as §1, §2"}, "[6]": {"molecular_target": "T6, stabilized hPIV1 F protein trimer in pre-fusion conformation (human parainfluenza virus 1)", "T6 construct": "also called preF-hPIV1; HPIV1 pre-fusion F protein", "experiment": "BLI, mAb captured, F protein at 50 nM"}, "[7]": {"molecular_target": "stabilized hPIV3 F protein trimer in pre-fusion conformation (human parainfluenza virus 3)", "experiment": "BLI, mAb captured, F protein at 50 nM"}, "[8]": {"molecular_target": "T7, hMPV062 (hMPV A, UniProt Q6WB98 19-102)", "T7 construct": "G121A", "experiment": "BLI, 50C stress, vs WT Control", "method": "(§3) The OCTET HTX (Sartorius, Gottingen, Germany) instrument was used to evaluate the expression and conformational integrity for each mutant. All measurements were conducted at 30° C. temperature in 96-well black plates (Corning, Corning, NY) with a final volume of 240 μL per well at a constant agitation rate of 1000 RPM.\n(§4) Conformation integrity of hMPV A F protein mutants were evaluated by thermal stress experiments. Crude cell culture supernatants were normalized based on the results of the titer quantitation and then incubated for 1 hour at room temperature and two higher temperatures. […] Anti-Human IgG Fc Capture (AHC) biosensors were first equilibrated in PB before being dipped into more PB to establish the initial baseline. […] The mAb-bound biosensors were then dipped into the thermal stressed cell culture supernatants for 5 minutes. The kinetics analysis was done by OCTET data analysis software (version 12.0, Sartorius) based on curve fitting of the entire associate step."}, "[9]": {"molecular_target": "T8, hMPV066 (hMPV A, UniProt Q6WB98 19-102)", "T8 construct": "T49I", "experiment": "BLI, 50C stress, vs WT Control", "method": "as §3, §4"}, "[10]": {"molecular_target": "T9, hMPV063 (hMPV A, UniProt Q6WB98 19-102)", "T9 construct": "G239A", "experiment": "BLI, 50C stress, vs WT Control", "method": "as §3, §4"}, "[11]": {"molecular_target": "T10, hMPV053 (hMPV A, UniProt Q6WB98 19-102)", "T10 construct": "L110P", "experiment": "BLI, 50C stress, vs WT Control", "method": "as §3, §4"}, "[12]": {"molecular_target": "T11, hMPV043 (hMPV A, UniProt Q6WB98 19-102)", "T11 construct": "G366C-D454C", "experiment": "BLI, 50C stress, vs WT Control", "method": "as §3, §4"}, "[13]": {"molecular_target": "T12, hMPV068 (hMPV A, UniProt Q6WB98 19-102)", "T12 construct": "A159V", "experiment": "BLI, 50C stress, vs WT Control", "method": "as §3, §4"}, "[14]": {"molecular_target": "T13, hMPV052 (hMPV A, UniProt Q6WB98 19-102)", "T13 construct": "L66P", "experiment": "BLI, 50C stress, vs WT Control", "method": "as §3, §4"}, "[15]": {"molecular_target": "T14, hMPV058 (hMPV A, UniProt Q6WB98 19-102)", "T14 construct": "L187P", "experiment": "BLI, 50C stress, vs WT Control", "method": "as §3, §4"}, "[16]": {"molecular_target": "T15, hMPV046 (hMPV A, UniProt Q6WB98 19-102)", "T15 construct": "A140C-S149C", "experiment": "BLI, 50C stress, vs WT Control", "method": "as §3, §4"}, "[17]": {"molecular_target": "T16, hMPV048 (hMPV A, UniProt Q6WB98 19-102)", "T16 construct": "L141C-A161C", "experiment": "BLI, 50C stress, vs WT Control", "method": "as §3, §4"}, "[18]": {"molecular_target": "T17, hMPV054 (hMPV A, UniProt Q6WB98 19-102)", "T17 construct": "S132P", "experiment": "BLI, 50C stress, vs WT Control", "method": "as §3, §4"}, "[19]": {"molecular_target": "T18, hMPV077 (hMPV A, UniProt Q6WB98 19-102)", "T18 construct": "Q476C, S477C", "experiment": "BLI, 50C stress, vs WT Control", "method": "as §3, §4"}, "[20]": {"molecular_target": "T19, hMPV055 (hMPV A, UniProt Q6WB98 19-102)", "T19 construct": "N145P", "experiment": "BLI, 50C stress, vs WT Control", "method": "as §3, §4"}, "[21]": {"molecular_target": "T20, hMPV050 (hMPV A, UniProt Q6WB98 19-102)", "T20 construct": "V148C-L158C", "experiment": "BLI, 50C stress, vs WT Control", "method": "as §3, §4"}, "[22]": {"molecular_target": "T21, hMPV045 (hMPV A, UniProt Q6WB98 19-102)", "T21 construct": "I137C-A159C", "experiment": "BLI, 50C stress, vs WT Control", "method": "as §3, §4"}, "[23]": {"molecular_target": "T22, hMPV097 (hMPV A, UniProt Q6WB98 19-102)", "T22 construct": "T411C-Q434C, E146C-T160C, A459P, G239A, T49I, S149T, T365I", "experiment": "BLI, 53C stress", "method": "as §3, §4"}, "[24]": {"molecular_target": "T23, hMPV087 (hMPV A, UniProt Q6WB98 19-102)", "T23 construct": "T411C-Q434C, L141C-A161C, T365I", "experiment": "BLI, 53C stress", "method": "as §3, §4"}, "[25]": {"molecular_target": "T24, hMPV090 (hMPV A, UniProt Q6WB98 19-102)", "T24 construct": "T411C-Q434C, L141C-A161C, A459P, G239A, T49I, S149T, T365I", "experiment": "BLI, 53C stress", "method": "as §3, §4"}, "[26]": {"molecular_target": "T25, hMPV079 (hMPV A, UniProt Q6WB98 19-102)", "T25 construct": "T411C-Q434C, A140C-S149C, A459P", "experiment": "BLI, 53C stress", "method": "as §3, §4"}, "[27]": {"molecular_target": "T26, hMPV082 (hMPV A, UniProt Q6WB98 19-102)", "T26 construct": "T411C-Q434C, A140C-S149C, G239A", "experiment": "BLI, 53C stress", "method": "as §3, §4"}, "[28]": {"molecular_target": "T27, hMPV086 (hMPV A, UniProt Q6WB98 19-102)", "T27 construct": "T411C-Q434C, L141C-A161C, T49I; also called hMP0086", "experiment": "BLI, 53C stress", "method": "as §3, §4"}, "[29]": {"molecular_target": "T28, hMPV084 (hMPV A, UniProt Q6WB98 19-102)", "T28 construct": "T411C-Q434C, L141C-A161C", "experiment": "BLI, 53C stress", "method": "as §3, §4"}, "[30]": {"molecular_target": "hMPV A F WT Control (hMPV A, UniProt Q6WB98 19-102)", "experiment": "BLI, 53C stress", "method": "as §3, §4"}, "[31]": {"molecular_target": "T29, hMPV083 (hMPV A, UniProt Q6WB98 19-102)", "T29 construct": "T411C-Q434C, A140C-S149C, A459P, G239A, T49I, T365I", "experiment": "BLI, 53C stress", "method": "as §3, §4"}, "[32]": {"molecular_target": "T30, hMPV089 (hMPV A, UniProt Q6WB98 19-102)", "T30 construct": "T411C-Q434C, L141C-A161C, S149T", "experiment": "BLI, 53C stress", "method": "as §3, §4"}},
  "data": [
    {"binder": "B1", "values": [
      {"measurement": "Response Shift", "setting": "[1]", "value": -0.012, "unit": "nm"},
      {"measurement": "Response Shift", "setting": "[2]", "value": -0.054, "unit": "nm"},
      {"measurement": "Response Shift", "setting": "[3]", "value": -0.059, "unit": "nm"},
      {"measurement": "Response Shift", "setting": "[4]", "value": -0.007, "unit": "nm"},
      {"measurement": "Response Shift", "setting": "[5]", "value": -0.052, "unit": "nm"},
      {"measurement": "Binding response BLI", "setting": "[6]", "value": 1.96, "unit": "nm"},
      {"measurement": "Binding response BLI", "setting": "[7]", "value": -0.052, "unit": "nm"}
    ]},
    {"binder": "B2", "values": [
      {"measurement": "Fold change vs WT", "setting": "[8]", "value": 1.6, "unit": "fold"},
      {"measurement": "Fold change vs WT", "setting": "[9]", "value": 2.6, "unit": "fold"},
      {"measurement": "Fold change vs WT", "setting": "[10]", "value": 2.4, "unit": "fold"},
      {"measurement": "Fold change vs WT", "setting": "[11]", "value": 2, "unit": "fold"},
      {"measurement": "Fold change vs WT", "setting": "[12]", "value": 2, "unit": "fold"},
      {"measurement": "Fold change vs WT", "setting": "[13]", "value": 1.6, "unit": "fold"},
      {"measurement": "Fold change vs WT", "setting": "[14]", "value": 2.2, "unit": "fold"},
      {"measurement": "Fold change vs WT", "setting": "[15]", "value": 1.7, "unit": "fold"},
      {"measurement": "Fold change vs WT", "setting": "[16]", "value": 1.7, "unit": "fold"},
      {"measurement": "Fold change vs WT", "setting": "[17]", "value": 1.5, "unit": "fold"},
      {"measurement": "Fold change vs WT", "setting": "[18]", "value": 1.6, "unit": "fold"},
      {"measurement": "Fold change vs WT", "setting": "[19]", "value": 2.2, "unit": "fold"},
      {"measurement": "Fold change vs WT", "setting": "[20]", "value": 0.7, "unit": "fold"},
      {"measurement": "Fold change vs WT", "setting": "[21]", "value": 0.5, "unit": "fold"},
      {"measurement": "Fold change vs WT", "setting": "[22]", "value": 0.4, "unit": "fold"},
      {"measurement": "Response Shift", "setting": "[23]", "value": 0.82, "unit": "nm"},
      {"measurement": "Response Shift", "setting": "[24]", "value": 0.709, "unit": "nm"},
      {"measurement": "Response Shift", "setting": "[25]", "value": 0.815, "unit": "nm"},
      {"measurement": "Response Shift", "setting": "[26]", "value": 0.73, "unit": "nm"},
      {"measurement": "Response Shift", "setting": "[27]", "value": 0.816, "unit": "nm"},
      {"measurement": "Response Shift", "setting": "[28]", "value": 0.746, "unit": "nm"},
      {"measurement": "Response Shift", "setting": "[29]", "value": 0.776, "unit": "nm"},
      {"measurement": "Response Shift", "setting": "[30]", "value": -0.014, "unit": "nm"},
      {"measurement": "Response Shift", "setting": "[31]", "value": 0.755, "unit": "nm"},
      {"measurement": "Response Shift", "setting": "[32]", "value": 0.801, "unit": "nm"}
    ]}
  ]
}
